Data from a protein production outcome set (Wang et al. 2014).

Assay: label from the status in PepcDB records
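Note: failed if final PepcDB status was selected cloned or expressed and not failed if soluble or beyond.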

Sequence	protein production
SSSQDVLIHSDDPCHPANLICTLCKQFFHNNWCTGTGGGISIKDPNTNYYYLAPSGVQKEKMIPEDLFVMDAQTLEYLRSPKLYKPSACTPLFLACYQKKNAGAIIHTHSQNAVICSLLFGDEFRIANIEQIKAIPSGKVDPVTKKPMALSFFDTLKIPIIENMAHEDELIDDLHKTFKDYPDTCAVIVRRHGIFVWGPTIDKAKIFNEAIDYLMELAIKMYQMGIPPDCGIGEEKKHLKMASP	not failed
MKMKHMKPYTTMKTVLSTLAIALAFGPLHNAQACTRILYETGNQSYISGRSMDWADPSAATALWVFPKGMKRDGTVGDNPIKWSAKYGSIIVSFYDAGTADGMNEKGLVANMLYLKEAKWGDATKAGKPTLTAGAWAQYFLDNYATVEEAVTAMANPPFTIIAPSLPNGDAAALHLSISDVNGDSAIFEYIDGKLVIHHGSQYKVMTNSPTFDQQLALNTYWQQIGGSKFLPGTINAADRFVRASYALSASPKYRDNDLALASVFSQIRAVSVPLGITDPDRPNLAMTLWRTFADHTAKIYYFESAVFPAVSWLDMSKVDLTEGAAPKVVRVERGQPLAGELSAALKPAEPFKWLGAE	failed
MSRSFFAVLRDGKRYADKWPHHSVVAAMAESRIIPITRKAISWTPGIAVLNAALTWQFMPQEQLAPGLMLSLIMLSLPLQGLYWLGWRSRQPLKPMLRNWYKELRDKLRKQGVECQPQGEKGPEYMDLAIILRKALETLPPEEH	failed
MAELYVKPGNKERGWNDPPQFSYGLQTQTGGPKRTPLTKRVAAPQDGSPRAPETSGPPPVDHPPPSSKASRPPPMGSCPATGVEPPSSPVIESETLIEDVLRPLEQALEDCHGHTKKQVCDDISRRLALLREQWAGGKLSIPVKKRMALLVQELLHHQWDAADDIHRSLMVDHVTEVSQWMVGVKRLIAEKKSLSSEETKEEKFTVEPENQTIPGFQQPS	not failed
MKFPGQRKSKHYFPVKTRDPLLEQLTQQPQPFATYISGIDQTLVDIEAKVEDELLSRYGLPKGNSTLINDEQAHTLYTELKQNGLISDEFAGGTIGNTVHNYSILADDRSVLFGVMSQNIEVGSYAYRYLCNTSSKVDLNYLQPVDGPIGRCFTLISDCGERTFAISKGAMDKLTPEYIDKDIVQGSSALVLTAYLMRASGGDRITDAAMCAIEYAKAAEVPVVLTLGTRFLIEEDPIWWQNFIKEHVTILAMNEDEGEALTGFRDPLLASEKALEWCDMVLTTAGPIGLYTAGYTDDAEKRETSHTLLPGAIPEFNRYEFSRPKLKSDCENPIKVYAHISPYMGGPEKIGNTNGAGDGALSALLHDLAANTFHKTNVPGSSKHKRDGLCYSSFSQICKYANRVAYEVLAQHSPRLSRGLPEREDSLEESYWER	failed
MIITIARQCGCMGDQIGKALAEKYFIPFYDKDAVCRLAKEKGLYEKYPYFYGEMPLDMLLYADTMAGDDTTDNGKTPRKAMADIIGNENCVVVGRCGNNAFRHREDVISVFLTGNKEKRVELIEKKHNVSPKKAAKIVEDTDLRRRSYHNYYTGEEWGNAEYYDICIDVSKVGEDGALRLIEAYINETGVL	failed
MTTHHETYTAPPFGPALMLNAFAPSRGWNPKDGFPDFSFIWRGYQISPAALATLQRAAGRDDAATADRLILLAPHVTGFRLTMALLMCRDWPLPIWRALQLRNRLIRSGDIKLDAASDLIVRAIGWRVHDKGIELDVLAQLMQGGDCPWQSITTFYYRGRFDGPASHGADDGAPMASPPIDPSLPPMTQWTVDGGERLRWAALTGDYNPLHLVDIYARATGFAAASAHPQRIAAQCLGHLAPTPEHPTQLDLWLKGPVYFGRSASLREASNDDGTTFGLWIDGDDRPAMVGVMR	failed
MGTLWWNGTFFTMVHEGDQVEAVFTEDGKIVAIGTAEELRQRYSTRINQEMNCDGAYVYPLEHHHHHH	not failed
MSELIAQLLVYIKGIWKYRWASVATAWTVAIAGWFFVYQMPDNYQASARIYVDTQSILRPLMAGMTVSPNPDQQITIMSRTLISRPNVERIIRMVDLDIKITDDSAREKLVTTLMKDIKLSTTGSDNIFMISYDNKDPRLAKDIVQSLLTIFVEGGLEGKKQDSASALRFIDQQIAAYEEKLVAAEAALTAFKQKNIGFLPGQGGDYYSQLVSAAEELEKARLTLLEAEQARDAVKKQITGDEPVLLFEVGEVSPQSIVNPEIDSRIQALNTNLDNLMLNFTDQHPDVVATKRLIAQLEERKVEEAKLAGTVNNRGRNYDPMMQQLNIALAESEAQVASMKARVAEYEARFERLKSMSNTVPAVEVEMQQLNRDYNVNKANYEKLLERRASAEISGELTSTSGLMSFRIVDPPTVPEAPSGPDRKKFFTLVLIGALAGGIGFAFIISQIRPTFHSQSTLRELTGLPILGTIPMVWTEQQKLKDKRKIYAFGISLLMLMACYVVLMIYVKPHGMTAA	failed
EAPVRVIVVHGLGTHSGALWPLVAAIEGADLAAIDLPKTPLYDDWLRLLESFISSEDDGRPLILIGAGTGGLLCAEAAHRTGLVAHVIATCLLNPSDQPTRRALFRFSPLTRLIQGRLRNREIPVTRVLNFSKISRSPALSKLCAADEFSGASKITWGFLASYVQHKAKLGAVPVTLMHPDHDLLTPVELSLRTLSRLKAPTDVVMLKDCGHFPIEEPGFTTMLETVTSVIARNS	failed
MIKFMSIASGSSGNCYYLSNGNQALLIDAGIPLRSISKALKDHQLPIEGNVVGVLVTHDHADHIRTIGCLGEKFHLPVFATERVHNGINSSRYMDHLPLLSRRNILQEETFRLAGFDITAFPIPHDATENVGYHITAPGFSFTLCTDVGHITDTISHYASKADYLVMEANYDCEMLLSGPYPEFLKERVSGPNGHLSNQETGDFLARTFHPGMKHVWLCHLSKDNNHPDLCWKSIEYRLFSEGIRVGKDMELTVLKRTSPSSLYTLLEDLEHHHHHH	not failed
MVSKRLTGAVALLFLAAGAAGAAGLTVKEQLGKDIFFDTNLSINGNQSCADCHAPEAGWTGPTSEVNAHGAVYEGSIAGRFGNRKPPSSAYATTAPILKYIRQGGGMFVGGNFWDGRATGEKLGNPAADQAQGPFLNPLEQGLPDSACVVHRVCTATYGTAMETLWPGSCAIAWPADVAAACATEGTVVNLDAPNRAASDLAYDYIALAIAAYEGSTESNAFTSKYDAFLAGKAFLTPEERRGLTLFNGKAKCARCHVNTGRAPLFTDYTYDNLGVPRNSENPFYESAFNPLGINWIDQGLGGFLASRIDYSRFATANLGKHKVPTLRNVDKKTSPDFVKAFGHNGYFKSLKEIVHFYNTRDVLPTCAPGSPGEKVTCWPEPELALTMNTTELGNLKLSDAEEDALVAFMKTLTDGYQP	failed
MLQQQRTNSRGEKYVIGPTGAPLTLADLPPAETQRWVIRRKAEVVAAVRGGLLSLDEACDRYKLTNDEFLSWQQSIDRHGLAGLRTTRIQQYRLEHHHHHH	not failed
MRSVRKRTVLVSTLLALVLTQVARADDKGSHPAVIGDVHFKVECNATAQAKFNVAVAYYHSFQWQRVIATADDVLKVDPTCGMAHWVKALAMLDNPFAWPVTLSEKAIAEGPVLLDAARKAGLKTQRERDYVDALAIFFKDLNTTNYRERAESFEKAMAQLAQQNADDSEATVLYALILSRNFDPTDKTYRNQLHAAELLEPIFAREPNHPGVAHYLIHSYDYPPLAKRGIDAARKYAKIAPDTPHSLHMPSHIFTLTGFWQESIDTNRRAAEMADDSITHDGHHASDYMVYAHLQLGQDLAARKIMEQEQVRHGIDMIGVAYPYAAIPARIALERRAWREAADLPLYARDTYPWKKYPQAEAVNAFARGVGSAMSGEPAKANFEAKRLIKLRDAATAMKLNYWADQIDIQAEVVRGLADFAEGKRDEGIAILHRAAEREDASAKNVVTPGPVVPAREMLATILERDRKPADALAEFEKVLEQHPNRYRTIAGAAQNAKQAGNEQKADHYAELLLKLAEHADSPRPEIAEAKSMLGM	failed
MAEILRLSPAICAYPDETYENLKIEVVLPGVEKENISFKVVEDGFYVKATKEGVEYTDSYAVCCPISPEKATATYSNGVLKVNVPYQQPFEKAVDVKIE	failed
MANVFLISSRNRRSMRTTTESKPKNLTVKRSDSSSDYNYSCKKHPKHRQSPGICSLCLNESLSKLSSEFYDYSSSMSSSSLAKTMSSCSSASSESESDFSSTAISSYYSSVSSCLSPLQHRYSEIVVNKKKKKHVKKQSFLSRLFLKQRIQTKAVIGWHMTLQLAIQLMYGKRKKTCHASFIQVWY	failed
MTLKLKDKNTMLNSEKMVASIEKQDLHHADKYLKKALNEDPAEVLVELAEYLESIGFLPQAQEIYEKVRFDFPEVNVNLAQIAAEDGNIEEAFLYLDAIPEESEDYLSALIVKADLYQMEGLTDVARDKLLEASQLSDDSLIIFGLAEMEFELGNFEQAIQYYAKLDNRDLLATTGVSTYERIGKSYASLGKFEAAREFLEKAIEIEYNDTIAFELATLLYDQEEYQKANFYFKQIETMSSDFEGYEYNYALSLHAEHRTEEALRMTQQGISKNAFDVQLLLLASQLSYELHDTQSAESYLKQALPLAEDNDEIVLRLSALYLEEERFDDLVALADYEVDSVLARWNIARAYQALDDEEEAFQIYQDLSKDLADNPEFLQDYAYILREFGYRDQARVTAEKYLALVPDDVNMQTFLEDY	failed
MAESVRLPTPYNRKTEIRPMFTEIILFLLDTVFTLFGMALLLRLWMQLSRLPSRNPVSQGVFQVTDWIVRPLRRIIPGLGGIDWATVFAAYLTAVAFLLCRALVLGADPLGFLPVILALGVLSMLKWGISMVMWVTLLMAVLSWVNPNSPLAAPIWHLTAPLLRPIQRVVPRLGGFDISPLILFVIAQILLMVIANVSRGVA	failed
MTNSKQKLVLASGSPRRLELLHQIGIEPARLMPMDIDETPVKLEHPRTLCRRLSQQKAEAAQAALKSEQAWKDAYVLGSDTVVAVGRRIVGKAEYTEEASAALHLLSGRSHWVYTGICLVTPDGKIRQKVAETKVRFKRLSTREIDAYIASGQWRGKAGAYGIQGIAGAFVQKLTGSYTNVVGLPLYETMSLLSGEGFEVTSGWLEG	failed
MVRYPLEPVLSIKKDRVDRAEKVVKEKRRLLELEQEKLRERESERDKVKNHYMQKIRQLREQLDDGTTSDAILKMKAYIKVVAIQLSEEEEKVNKQKENVLAASKELERAEVELTKRRKEEEKTRLHKEEWMKEALKEEARQEEKEQDEMGQLLHQLHKQKQRESGEN	failed
MRTPTTILLLVGAILFSGAGYVRSDASDHRYKEGDTVPLYANKVGPFHNPSETYRYFDLPFCIPEGVKEKKEALGEVLNGDRLVSAPYKLNFRDEKESEVYCNKKLSKEEVKQFRKAVEKDYYFQMYYDDLPIWGFIGKVDKDIKSDPSEFKYFLYKHIQFEILYNKDRVIEISARMDPHSLVDLTEDKEVDAEFMYTVKWKETETPFEKRMEKYSMSSSLPHHLEIHWFSIINSCVTVLLLTGFLATILMRVLKNDFMKYAQDEEAADDQEETGWKYIHGDVFRFPTHNSLFAASLGSGTQLFTLTIFIFMLALVGVFYPYNRGALFTALVVIYALTSGIAGYTSASFYCQLEGKSWVRNLLLTGCLFCGPLFLTFCFLNTVAITYTATAALPFGTIVVIVLIWTLVTSPLLVLGGIAGKNSKAEFQAPCRTTKYPREIPPLPWYRSAIPQMAMAGFLPFSAIYIELYYIFASVWGHRIYTIYSILFIVFIILIIVTAFITVALTYFQLAAEDHQWWWRSFLCGGSTGLFIYAYCLYYYYARSDMSGFMQTSFFFGYMACICYGFFLMLGTVGFRAALLFVRHIYRSIKCE	failed
SLVDGKLVCVTGAGGYIASWIVKLLLERGYTVRGTVRNPTDPKNNHLRELQGAKERLTLHSADLLDYEALCATIDGCDGVFHTASPMTDDPETMLEPAVNGAKFVIDAAAKAKVKRVVFTSSIGAVYMNPNRDTQAIVDENCWSDLDFCKNTKNWYCYGKMLAEQSAWETAKAKGVDLVVLNPVLVLGPPLQSAINASLVHILKYLTGSAKTYANLTQVYVDVRDVALGHVLVYEAPSASGRYILAETALHRGEVVEILAKFFPEYPLPTKCSDEKNPRAKPYKFTTQKIKDLGLEFKPIKQSLYESVKSLQEKGHLPLPQDSNQNEVIIES	failed
